Drawing on the Human Domainome abundance scans (Beltran et al. 2025), this text covers abundance fitness for 45 variants.

B1: Triacylglycerol hydrolase DDHD2, residues 389 to 447; numbered along this chain, O94830 (parent)
chain: TLEEDLKKLQLSEFFDIFEKEKVDKEALALCTDRDLQEIGIPLGPRKKILNYFSTRKNS

± gives the uncertainty stated by the source.

This data set covers variants of B1. As to the kind of experiment: abundance fitness (aPCA) (normalised: wild type 0, dead -1); higher = more abundant; growth selection in yeast, the domain comes from the species named. The note with it: Homo sapiens.
TLEEDLKKLQLSEFFDIFEKEKVDKEALALCTDRDLQEIGIPLGPRRKILNYFSTRKNS [K47R]: the abundance fitness was -0.065 ± 0.064. As to TLEEDLKKLQLSEFFDIFEKEKVDKEALALCTDRDLQEIGIPLGPRYKILNYFSTRKNS [K47Y], the abundance fitness was -0.524 ± 0.18. The value for TLEEDLKKLQLSEFFDIFEKEKVDKEALALCTDRDLQEIGIPLGPRHKILNYFSTRKNS [K47H] was -0.376 ± 0.11. The value for TLEEDLKKLQLSEFFDIFEKEKVDKEALALCTDRDLQEIGIPLGPYKKILNYFSTRKNS [R46Y] was -0.848 ± 0.17; that for TLEEDLKKLQLSEFFDIFEKEKVDKEALALCTDRDLQEIGIPLGPWKKILNYFSTRKNS [R46W] was -1.27 ± 0.17; that for TLEEDLKKLQLSEFFDIFEKEKVDKEALALCTDRDLQEIGIPLGPSKKILNYFSTRKNS [R46S] was -0.058 ± 0.066. The value for TLEEDLKKLQLSEFFDIFEKEKVDKEALALCTDRDLQEIGIPLGPMKKILNYFSTRKNS [R46M] was -0.431 ± 0.15; that for TLEEDLKKLQLSEFFDIFEKEKVDKEALALCTDRDLQEIGIPLGPQKKILNYFSTRKNS [R46Q] was -0.243 ± 0.12; that for TLEEDLKKLQLSEFFDIFEKEKVDKEALALCTDRDLQEIGIPLGPTKKILNYFSTRKNS [R46T] was -0.224 ± 0.095. With TLEEDLKKLQLSEFFDIFEKEKVDKEALALCTDRDLQEIGIPLGPVKKILNYFSTRKNS [R46V], the abundance fitness is -0.52 ± 0.068. The value for TLEEDLKKLQLSEFFDIFEKEKVDKEALALCTDRDLQEIGIPLGPPKKILNYFSTRKNS [R46P] was -0.628 ± 0.11; that for TLEEDLKKLQLSEFFDIFEKEKVDKEALALCTDRDLQEIGIPLGPDKKILNYFSTRKNS [R46D] was -0.242 ± 0.098; that for TLEEDLKKLQLSEFFDIFEKEKVDKEALALCTDRDLQEIGIPLGPGKKILNYFSTRKNS [R46G] was -0.107 ± 0.055.

With TLEEDLKKLQLSEFFDIFEKEKVDKEALALCTDRDLQEIGIPLGPNKKILNYFSTRKNS [R46N], the abundance fitness is -0.152 ± 0.11. With TLEEDLKKLQLSEFFDIFEKEKVDKEALALCTDRDLQEIGIPLGPKKKILNYFSTRKNS [R46K], the abundance fitness is -0.338 ± 0.14. The value for TLEEDLKKLQLSEFFDIFEKEKVDKEALALCTDRDLQEIGIPLGPLKKILNYFSTRKNS [R46L] was -0.744 ± 0.088; that for TLEEDLKKLQLSEFFDIFEKEKVDKEALALCTDRDLQEIGIPLGPIKKILNYFSTRKNS [R46I] was -0.163 ± 0.1.

Regarding TLEEDLKKLQLSEFFDIFEKEKVDKEALALCTDRDLQEIGIPLGPCKKILNYFSTRKNS [R46C], the abundance fitness is -0.172 ± 0.08.

With TLEEDLKKLQLSEFFDIFEKEKVDKEALALCTDRDLQEIGIPLGPEKKILNYFSTRKNS [R46E], the abundance fitness was -0.217 ± 0.1. The value for TLEEDLKKLQLSEFFDIFEKEKVDKEALALCTDRDLQEIGIPLGPRKKDLNYFSTRKNS [I49D] was -0.125 ± 0.097; that for TLEEDLKKLQLSEFFDIFEKEKVDKEALALCTDRDLQEIGIPLGPRKKVLNYFSTRKNS [I49V] was -0.215 ± 0.072. The value for TLEEDLKKLQLSEFFDIFEKEKVDKEALALCTDRDLQEIGIPLGPRKKGLNYFSTRKNS [I49G] was -0.593 ± 0.081; that for TLEEDLKKLQLSEFFDIFEKEKVDKEALALCTDRDLQEIGIPLGPRKKKLNYFSTRKNS [I49K] was -0.467 ± 0.13. For TLEEDLKKLQLSEFFDIFEKEKVDKEALALCTDRDLQEIGIPLGPRKKQLNYFSTRKNS [I49Q], the abundance fitness is -0.307 ± 0.11. The value for TLEEDLKKLQLSEFFDIFEKEKVDKEALALCTDRDLQEIGIPLGPRKKYLNYFSTRKNS [I49Y] was -0.946 ± 0.19; that for TLEEDLKKLQLSEFFDIFEKEKVDKEALALCTDRDLQEIGIPLGPRKKMLNYFSTRKNS [I49M] was -0.09 ± 0.096. The value for TLEEDLKKLQLSEFFDIFEKEKVDKEALALCTDRDLQEIGIPLGPRKKALNYFSTRKNS [I49A] was -0.244 ± 0.093; that for TLEEDLKKLQLSEFFDIFEKEKVDKEALALCTDRDLQEIGIPLGPRKKELNYFSTRKNS [I49E] was -0.052 ± 0.093; that for TLEEDLKKLQLSEFFDIFEKEKVDKEALALCTDRDLQEIGIPLGPRKKLLNYFSTRKNS [I49L] was -0.077 ± 0.069. Take TLEEDLKKLQLSEFFDIFEKEKVDKEALALCTDRDLQEIGIPLGPRKKNLNYFSTRKNS [I49N]: the abundance fitness is -0.589 ± 0.14. The value for TLEEDLKKLQLSEFFDIFEKEKVDKEALALCTDRDLQEIGIPLGPRKKSLNYFSTRKNS [I49S] was -0.046 ± 0.079; that for TLEEDLKKLQLSEFFDIFEKEKVDKEALALCTDRDLQEIGIPLGPRKKPLNYFSTRKNS [I49P] was -0.34 ± 0.11; that for TLEEDLKKLQLSEFFDIFEKEKVDKEALALCTDRDLQEIGIPLGPRKKRLNYFSTRKNS [I49R] was -0.489 ± 0.076. Turning to TLEEDLKKLQLSEFFDIFEKEKVDKEALALCTDRDLQEIGIPLGPRKKHLNYFSTRKNS [I49H], the abundance fitness was -0.07 ± 0.12. The value for TLEEDLKKLQLSEFFDIFEKEKVDKEALALCTDRDLQEIGIPLGPRKKTLNYFSTRKNS [I49T] was -0.301 ± 0.1; that for TLEEDLKKLQLSEFFDIFEKEKVDKEALALCTDRDLQEIGIPLGPRKKCLNYFSTRKNS [I49C] was -0.33 ± 0.097; that for TLEEDLKKLQLSEFFDIFEKEKVDKEALALCTDRDLQEIGIPLGPRKKWLNYFSTRKNS [I49W] was -0.477 ± 0.11. For the variant TLEEDLKKLQLSEFFDIFEKEKVDKEALALCTDRDLQEIGIPLGPRKKFLNYFSTRKNS [I49F], the abundance fitness was -0.765 ± 0.16. For the variant TLEEDLKKLQLSEFFDIFEKEKVDKEALALCTDRDLQEIGIPLGPRKKILCYFSTRKNS [N51C], the abundance fitness was -0.323 ± 0.096. The value for TLEEDLKKLQLSEFFDIFEKEKVDKEALALCTDRDLQEIGIPLGPRKKILGYFSTRKNS [N51G] was 0.061 ± 0.07. The value for TLEEDLKKLQLSEFFDIFEKEKVDKEALALCTDRDLQEIGIPLGPRKKILAYFSTRKNS [N51A] was 0.151 ± 0.073. With TLEEDLKKLQLSEFFDIFEKEKVDKEALALCTDRDLQEIGIPLGPRKKILDYFSTRKNS [N51D], the abundance fitness amounted to 0.209 ± 0.089.

With TLEEDLKKLQLSEFFDIFEKEKVDKEALALCTDRDLQEIGIPLGPRKKILEYFSTRKNS [N51E], the abundance fitness was 0.18 ± 0.094. The value for TLEEDLKKLQLSEFFDIFEKEKVDKEALALCTDRDLQEIGIPLGPRKKILIYFSTRKNS [N51I] was -0.93 ± 0.17; that for TLEEDLKKLQLSEFFDIFEKEKVDKEALALCTDRDLQEIGIPLGPRKKILHYFSTRKNS [N51H] was -0.148 ± 0.12.
